T1: recombinant soluble human IL-6 receptor (SR344) (human, UniProt P08887 20-344, biotinylated (sites not given) where immobilized via streptavidin or used in phage ELISA)
T1 construct: also called soluble IL-6 receptor; membrane-type IL-6 receptor (when biotinylated and immobilized on the chip)
T1 sequence (looked up): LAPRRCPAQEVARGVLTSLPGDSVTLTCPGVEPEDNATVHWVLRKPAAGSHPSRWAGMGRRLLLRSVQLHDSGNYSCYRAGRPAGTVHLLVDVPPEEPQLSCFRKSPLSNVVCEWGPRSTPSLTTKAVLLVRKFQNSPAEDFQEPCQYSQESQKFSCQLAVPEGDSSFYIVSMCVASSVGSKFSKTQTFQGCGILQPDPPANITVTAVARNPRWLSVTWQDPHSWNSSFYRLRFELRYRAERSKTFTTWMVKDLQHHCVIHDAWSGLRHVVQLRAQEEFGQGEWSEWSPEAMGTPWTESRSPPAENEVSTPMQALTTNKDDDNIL


Assays:
[1] = biological target: T1, recombinant soluble human IL-6 receptor …; assay: SPR Biacore T100, biotinylated SR344 on streptavidin chip (model of membrane-type IL-6 receptor), antibody as analyte, bound at pH 7.4, dissociation at pH 5.8, 37 C
[2] = biological target: T1, recombinant soluble human IL-6 receptor …; assay: SPR Biacore T100, antibody captured by anti-IgG gamma chain F(ab)2, SR344 analyte, pH 7.4, 37 C
In short: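 Antibodies were captured on an anti-IgG γ-chain F(ab)₂ chip, with SR344 at 9.8–40 nM injected in 10 mM MES pH 7.4, 150 mM NaCl, 0.05% Tween 20, at 37° C. Real-time association/dissociation gave ka and kd, from which KD was calculated.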

[3] = biological target: T1, recombinant soluble human IL-6 receptor …; assay: SPR Biacore T100, antibody on protein A/G chip, SR344 analyte, 37 C, ratio of pH 5.8 to pH 7.4
Method: (§1) Kinetic analyses of antigen-antibody reactions at pH 5.8 and pH 7.4 were carried out using a Biacore™ T100 surface plasmon resonance system (GE Healthcare) on the four antibodies: humanized PM1 antibody (WT) and H3pI/L73, CLH5/L73, and H170/L82 produced in Examples 2 and 4 (buffer: 10 mM MES (pH 7.4 or pH 5.8), 150 mM NaCl, and 0.05% TWEEN® 20 (polyoxyethelene sorbitan monolaurate)). Various antibodies were bound onto a sensor chip immobilized with recomb-protein A/G (Pierce) by amine coupling. SR344 adjusted to concentrations of 9.8 to 400 nM was injected to the chip as an analyte. […] All the measurements were carried out at 37° C. Association rate constants kₐ (1/Ms) and dissociation rate constants kd (1/s) were calculated using Biacore T100™ Evaluation Software (GE Healthcare), and dissociation constants KD (M) were calculated on the basis of those values (Table 5). Moreover, the ratio of the affinities at pH 5.8 and pH 7.4 were calculated for each clone to evaluate pH-dependent binding. All the measurements were carried out at 37° C.

[4] = biological target: T1, recombinant soluble human IL-6 receptor …; assay: SPR Biacore T100, antibody on protein A/G chip, SR344 analyte, 37 C
Method: as §1

[5] = biological target: T1, recombinant soluble human IL-6 receptor …; assay: SPR Biacore T100, antibody on protein A/G chip, SR344 analyte, pH 7.4, 37 C
Method: as §1

[6] = biological target: T1, recombinant soluble human IL-6 receptor …; assay: SPR Biacore T100, biotinylated SR344 on streptavidin chip (model of membrane-type IL-6 receptor), antibody as analyte, 37 C

| koff [1] [s⁻¹] | Kd [2] [nM] | koff [2] [s⁻¹] | kon [2] [M⁻¹ s⁻¹] | KD (pH 5.8)/KD (pH 7.4) [3] | pH-dependent binding (affinity ratio) relative to WT [4] [fold] | Kd [5] [nM] | koff [5] [s⁻¹] | kon [5] [M⁻¹ s⁻¹] | kd (pH 5.8)/kd (pH 7.4) [6] | Binder |
| --- | --- | --- | --- | --- | --- | --- | --- | --- | --- | --- |
|  |  |  |  | 394 | > 15 | 1.6 | 0.0011 | 680000 |  | H170/L82 (antibody, IgG1, V domains shown, expressed and purified as IgG (IgG1); also called H170/L82-IgG1) VH: QVQLQESGPGLVKPSETLSLTCAVSGHSISHHHAHSWVRQPPGEGLEWIGYISYSGITHYNPHLKGRVTISRDTSKNQFSLKLSSVTAADTAAYYCARVLARITAMDHWGEGTLVTVSS VL: DIQMTQSPSSLSASVGDSVTITCQASQDISSHLNWYQQKPGKAPELLIYYGSHLHSGVPSRFSGSGSGTDFTFTISSLEAEDAATYYCGQGNRLPYTFGQGTKVEIE |
| 0.00025 | 2.7 | 0.0011 | 400000 | 2.4 |  | 2.1 | 0.001 | 510000 | 1 | humanized PM1 antibody (wild type, WT) (antibody, human IgG1, kappa, V domains shown, IgG1; also called WT-IgG1; wild type humanized anti-IL-6 receptor antibody) VH: QVQLQESGPGLVRPSQTLSLTCTVSGYSITSDHAWSWVRQPPGRGLEWIGYISYSGITTYNPSLKSRVTMLRDTSKNQFSLRLSSVTAADTAVYYCARSLARTTAMDYWGQGSLVTVSS VL: DIQMTQSPSSLSASVGDRVTITCRASQDISSYLNWYQQKPGKAPKLLIYYTSRLHSGVPSRFSGSGSGTDFTFTISSLQPEDIATYYCQQGNTLPYTFGQGTKVEIKR |

Continued, binder first:

| Binder | koff [1] [s⁻¹] | Kd [2] [nM] | koff [2] [s⁻¹] | kon [2] [M⁻¹ s⁻¹] | KD (pH 5.8)/KD (pH 7.4) [3] | pH-dependent binding (affinity ratio) relative to WT [4] [fold] | Kd [5] [nM] | koff [5] [s⁻¹] | kon [5] [M⁻¹ s⁻¹] | kd (pH 5.8)/kd (pH 7.4) [6] |
| --- | --- | --- | --- | --- | --- | --- | --- | --- | --- | --- |
| H3pI/L73 (antibody, IgG1, V domains shown, tested as IgG1; also called H3pI/L73-IgG1; H3pl/L73) VH: QVQLQESGPGLVKPSETLSLTCAVSGHSISHDHAHSWVRQPPGEGLEWIGYISYSGITNYNPSLKGRVTISRDTSKNQFSLKLSSVTAADTAAYYCARSLARTTAMDYWGEGTLVTVSS VL: DIQMTQSPSSLSASVGDSVTITCQASQHISSHLNWYQQKPGKAPELLIYYGSHLHSGVPSRFSGSGSGTDFTFTISSLEAEDAATYYCGQGNRLPYTFGQGTKVEIE | 0.00067 | 1.4 | 0.00059 | 410000 | 41.3 | 15 | 1.4 | 0.00074 | 540000 | 2.59 |
| Fv4-IgG1 (antibody, VH3-IgG1 / VL3-CK) heavy: not shown light: DIQMTQSPSSLSASVGDSVTITCQASTDISSHLNWYQQKPGKAPELLIYYGSHLLSGVPSRFSGSGSGTDFTFTISSLEAEDAATYYCGQGNRLPYTFGQGTKVEIERTVAAPSVFIFPPSDEQLKSGTASVVCLLNNFYPREAKVQWKVDNALQSGNSQESVTEQDSKDSTYSLSSTLTLSKADYEKHKVYACEVTHQGLSSPVTKSFNRGEC | 0.0026 | 1.4 | 0.001 | 720000 |  |  |  |  |  | 5.56 |

— patent publication US20180282719A1 (published 2018)
